Experiment in all cases: cell-based or functional assay
Experiment [1] deals with ACK1(h) (human) (UniProt Q07912).
Experiment [2] has as its target Abl(H396P)(h) (human) (UniProt P00519).
Experiment [3] has as its target Abl(M351T)(h) (human) (UniProt P00519).
The target of experiment [4] is T1, Aurora-A(h) (human) (UniProt O14965).
T1 sequence (looked up): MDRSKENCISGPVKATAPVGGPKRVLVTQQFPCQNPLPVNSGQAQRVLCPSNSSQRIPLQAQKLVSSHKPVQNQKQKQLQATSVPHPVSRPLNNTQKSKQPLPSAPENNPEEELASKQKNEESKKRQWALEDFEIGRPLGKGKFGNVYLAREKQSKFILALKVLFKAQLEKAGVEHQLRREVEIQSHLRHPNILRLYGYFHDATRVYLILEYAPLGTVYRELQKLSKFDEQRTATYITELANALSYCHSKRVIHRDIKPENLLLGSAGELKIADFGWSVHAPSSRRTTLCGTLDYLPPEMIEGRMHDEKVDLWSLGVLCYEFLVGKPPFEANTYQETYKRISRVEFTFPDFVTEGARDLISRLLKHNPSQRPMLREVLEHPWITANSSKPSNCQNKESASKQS

Experiment [5] has as its target T2, Bmx(h) (human) (UniProt P51813).
T2 sequence (looked up): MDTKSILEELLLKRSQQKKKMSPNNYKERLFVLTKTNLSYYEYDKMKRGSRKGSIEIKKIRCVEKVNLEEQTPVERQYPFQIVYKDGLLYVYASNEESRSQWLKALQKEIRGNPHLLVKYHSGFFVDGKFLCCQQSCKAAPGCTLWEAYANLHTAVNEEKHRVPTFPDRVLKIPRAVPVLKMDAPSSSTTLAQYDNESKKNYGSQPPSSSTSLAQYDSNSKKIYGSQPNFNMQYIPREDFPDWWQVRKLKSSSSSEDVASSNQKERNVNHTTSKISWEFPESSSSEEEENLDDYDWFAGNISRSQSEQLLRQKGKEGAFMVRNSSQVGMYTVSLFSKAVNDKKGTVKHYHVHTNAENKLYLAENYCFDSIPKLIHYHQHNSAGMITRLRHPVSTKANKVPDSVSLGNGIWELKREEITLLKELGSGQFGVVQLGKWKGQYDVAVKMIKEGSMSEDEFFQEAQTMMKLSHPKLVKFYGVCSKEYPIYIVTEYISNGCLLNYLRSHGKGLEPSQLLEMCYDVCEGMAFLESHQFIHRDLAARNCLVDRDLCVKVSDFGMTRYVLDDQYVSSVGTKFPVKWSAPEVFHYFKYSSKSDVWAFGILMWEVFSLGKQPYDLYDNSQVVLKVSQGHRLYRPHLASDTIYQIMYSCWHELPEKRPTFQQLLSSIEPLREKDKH

In experiment [6] the target is EGFR(L858R)(h) (human) (UniProt P00533).
Experiment [7] has as its target EGFR(T790M)(h) (human) (UniProt P00533).
The target in experiment [8] is FAK(h) (human) (UniProt Q05397).
The target of experiment [9] is HIPK3(h) (human) (UniProt Q9H422).
The target in experiment [10] is MRCKα(h) (human) (UniProt Q5VT25).
In experiment [11] the target is Met(Y1248D)(h) (human) (UniProt P08581).
Experiment [12] addresses Met(Y1248H)(h) (human) (UniProt P08581).
Experiment [13] deals with PAK5(h) (human) (UniProt Q9P286).
Experiment [14] has as its target SRPK2(h) (human) (UniProt P78362).
For experiment [15], the target named is cKit(V560G)(h) (human) (UniProt P10721).
For experiment [16], the target named is CK1γ2(h) (human) (UniProt P78368).
The target in experiment [17] is CK1γ3(h) (human) (UniProt Q9Y6M4).
The target in experiment [18] is EphA2(h) (human) (UniProt P29317).
Experiment [19] concerns the target Fgr(h) (human) (UniProt P09769).
Experiment [20] addresses T3, Fms(Y969C)(h) (human) (UniProt P07333).
T3 sequence (looked up): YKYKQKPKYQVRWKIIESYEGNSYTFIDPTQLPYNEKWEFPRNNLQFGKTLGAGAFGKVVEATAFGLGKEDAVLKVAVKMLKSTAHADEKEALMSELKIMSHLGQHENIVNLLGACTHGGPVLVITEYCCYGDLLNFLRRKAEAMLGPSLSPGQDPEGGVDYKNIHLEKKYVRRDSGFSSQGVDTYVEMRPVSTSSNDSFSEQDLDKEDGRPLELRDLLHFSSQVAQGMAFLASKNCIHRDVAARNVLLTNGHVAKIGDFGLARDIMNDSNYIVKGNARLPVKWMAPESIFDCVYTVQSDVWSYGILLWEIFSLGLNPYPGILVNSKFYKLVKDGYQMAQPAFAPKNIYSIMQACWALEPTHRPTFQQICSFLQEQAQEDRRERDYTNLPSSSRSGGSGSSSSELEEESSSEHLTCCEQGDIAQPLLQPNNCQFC

Experiment [21] deals with JNK1α1(h) (human) (UniProt P45983).
Experiment [22] has as its target MKK7β(h) (human) (UniProt O14733).
In experiment [23] the target is PAK3(h) (human) (UniProt O75914).
For experiment [24], the target named is T4, TAK1(h) (human) (UniProt O43318).
T4 sequence (looked up): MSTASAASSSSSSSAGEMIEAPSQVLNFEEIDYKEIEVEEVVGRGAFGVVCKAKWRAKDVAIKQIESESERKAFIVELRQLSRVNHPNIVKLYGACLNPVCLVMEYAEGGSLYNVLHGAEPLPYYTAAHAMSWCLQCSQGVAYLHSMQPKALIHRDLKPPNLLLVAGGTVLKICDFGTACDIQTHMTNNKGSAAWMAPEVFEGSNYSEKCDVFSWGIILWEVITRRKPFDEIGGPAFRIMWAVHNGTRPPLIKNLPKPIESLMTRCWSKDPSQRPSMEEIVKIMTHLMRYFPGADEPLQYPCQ

Experiment [25] addresses Yes(h) (human) (UniProt P07947).

Chain of cKit(V560G)(h) (human) (P10721 544-976 V560G): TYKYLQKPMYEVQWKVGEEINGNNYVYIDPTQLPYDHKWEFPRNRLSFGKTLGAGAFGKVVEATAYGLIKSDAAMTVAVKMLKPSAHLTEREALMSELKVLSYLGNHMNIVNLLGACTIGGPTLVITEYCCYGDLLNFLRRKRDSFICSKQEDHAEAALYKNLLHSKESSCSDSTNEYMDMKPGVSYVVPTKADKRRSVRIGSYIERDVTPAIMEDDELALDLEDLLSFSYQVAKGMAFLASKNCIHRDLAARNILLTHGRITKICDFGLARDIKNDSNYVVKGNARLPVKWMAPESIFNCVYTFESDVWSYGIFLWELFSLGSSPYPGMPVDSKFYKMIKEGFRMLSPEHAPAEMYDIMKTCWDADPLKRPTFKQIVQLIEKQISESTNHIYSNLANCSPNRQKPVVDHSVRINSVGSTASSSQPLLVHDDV
Chain of Abl(M351T)(h) (human) (P00519 27-1130 M351T limits assumed): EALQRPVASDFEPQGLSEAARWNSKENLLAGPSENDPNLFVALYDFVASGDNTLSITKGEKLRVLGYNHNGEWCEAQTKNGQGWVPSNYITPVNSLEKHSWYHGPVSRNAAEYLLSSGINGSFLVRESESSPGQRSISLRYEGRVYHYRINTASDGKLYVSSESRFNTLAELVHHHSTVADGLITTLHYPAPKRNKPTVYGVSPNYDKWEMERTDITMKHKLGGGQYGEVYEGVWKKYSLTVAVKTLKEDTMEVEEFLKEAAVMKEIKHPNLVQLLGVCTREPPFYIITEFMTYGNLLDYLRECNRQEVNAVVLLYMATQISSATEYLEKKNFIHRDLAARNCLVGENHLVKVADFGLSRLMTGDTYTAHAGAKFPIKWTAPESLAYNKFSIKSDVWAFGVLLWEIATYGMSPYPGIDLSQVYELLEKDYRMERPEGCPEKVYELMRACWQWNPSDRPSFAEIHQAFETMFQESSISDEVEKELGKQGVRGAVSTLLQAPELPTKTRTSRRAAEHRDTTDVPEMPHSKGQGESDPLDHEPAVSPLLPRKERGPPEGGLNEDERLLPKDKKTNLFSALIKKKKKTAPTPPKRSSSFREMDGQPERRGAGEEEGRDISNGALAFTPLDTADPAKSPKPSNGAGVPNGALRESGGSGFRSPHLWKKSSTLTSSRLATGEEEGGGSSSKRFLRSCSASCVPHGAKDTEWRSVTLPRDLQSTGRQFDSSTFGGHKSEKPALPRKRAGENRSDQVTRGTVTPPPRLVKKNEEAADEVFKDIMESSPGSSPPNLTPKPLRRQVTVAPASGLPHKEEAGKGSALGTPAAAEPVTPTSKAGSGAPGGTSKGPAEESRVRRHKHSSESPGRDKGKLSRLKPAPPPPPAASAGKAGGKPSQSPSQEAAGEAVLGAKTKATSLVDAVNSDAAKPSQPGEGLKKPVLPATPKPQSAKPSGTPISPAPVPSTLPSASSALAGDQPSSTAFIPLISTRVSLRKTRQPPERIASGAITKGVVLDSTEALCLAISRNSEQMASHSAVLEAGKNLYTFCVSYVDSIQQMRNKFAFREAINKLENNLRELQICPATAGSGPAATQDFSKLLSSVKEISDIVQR
Chain of Abl(H396P)(h) (human) (P00519 27-1130 H396P limits assumed): as the sequence (P00519 27-1130 M351T limits assumed) above, with T325M, H370P counted along it
Chain of EphA2(h) (human) (P29317 559-976 limits assumed): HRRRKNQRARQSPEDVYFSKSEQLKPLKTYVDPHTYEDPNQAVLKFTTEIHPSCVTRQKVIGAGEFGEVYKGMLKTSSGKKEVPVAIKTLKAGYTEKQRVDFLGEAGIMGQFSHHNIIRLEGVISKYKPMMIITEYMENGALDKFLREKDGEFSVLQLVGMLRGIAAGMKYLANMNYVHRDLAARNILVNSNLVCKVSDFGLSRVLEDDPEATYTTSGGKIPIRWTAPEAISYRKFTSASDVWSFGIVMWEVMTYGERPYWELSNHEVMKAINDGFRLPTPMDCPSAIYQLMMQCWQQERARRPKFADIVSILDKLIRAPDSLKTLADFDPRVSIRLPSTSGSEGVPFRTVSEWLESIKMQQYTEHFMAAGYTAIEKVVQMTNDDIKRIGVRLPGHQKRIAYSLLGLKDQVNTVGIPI
Chain of MKK7β(h) (human) (O14733 whole entry): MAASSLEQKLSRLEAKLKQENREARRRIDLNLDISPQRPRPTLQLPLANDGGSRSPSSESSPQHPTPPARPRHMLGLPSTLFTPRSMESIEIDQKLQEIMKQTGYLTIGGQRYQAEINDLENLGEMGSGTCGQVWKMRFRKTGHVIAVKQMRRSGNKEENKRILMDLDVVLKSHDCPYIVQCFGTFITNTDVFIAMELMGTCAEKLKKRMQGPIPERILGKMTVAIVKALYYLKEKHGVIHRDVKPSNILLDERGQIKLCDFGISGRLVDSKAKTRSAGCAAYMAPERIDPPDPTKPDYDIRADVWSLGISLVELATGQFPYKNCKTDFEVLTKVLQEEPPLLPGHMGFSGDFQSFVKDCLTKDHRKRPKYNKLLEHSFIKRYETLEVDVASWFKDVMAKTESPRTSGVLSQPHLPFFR
Chain of PAK3(h) (human) (O75914 other isoform, or with tags, fused parts or gaps limits assumed): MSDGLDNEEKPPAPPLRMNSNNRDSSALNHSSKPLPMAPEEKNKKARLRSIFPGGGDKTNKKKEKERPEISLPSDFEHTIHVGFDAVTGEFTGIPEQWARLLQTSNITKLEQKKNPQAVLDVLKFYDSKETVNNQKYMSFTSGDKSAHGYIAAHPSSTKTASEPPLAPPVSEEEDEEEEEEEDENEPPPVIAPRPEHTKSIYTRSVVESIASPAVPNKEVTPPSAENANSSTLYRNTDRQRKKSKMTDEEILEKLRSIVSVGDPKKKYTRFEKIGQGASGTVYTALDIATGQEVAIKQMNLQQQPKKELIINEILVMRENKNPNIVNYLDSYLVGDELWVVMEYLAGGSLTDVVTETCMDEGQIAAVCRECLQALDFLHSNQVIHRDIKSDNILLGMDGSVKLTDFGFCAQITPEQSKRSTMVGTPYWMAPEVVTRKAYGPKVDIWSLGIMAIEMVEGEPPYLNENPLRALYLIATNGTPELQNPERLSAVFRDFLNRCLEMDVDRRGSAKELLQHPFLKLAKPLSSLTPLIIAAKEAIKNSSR

For the substance MMI-0500 (peptide), the % activity at 100 µM in experiment [1] is 64%; in experiment [2] it was 51%; in experiment [3], 61%; in experiment [4] it was 110%; in [5], 45%; in [6], 26%. For the same substance, the % activity at 100 µM in experiment [7] is 70%; in [8], 94%; in [9], 85%; in experiment [10] it was 5%; in experiment [11], 218%; in [12], 126%. Besides, the % activity at 100 µM in experiment [13] turned out to be 125%; in experiment [14] it was 80%; in experiment [15] it was 198%.

Regarding MMI-0300 (peptide), the % activity at 100 µM in experiment [2] stood at 101%; in experiment [3] it was 90%; in experiment [4], 92%; in experiment [16], 123%; in experiment [17], 125%; in experiment [7], 100%. Besides, the % activity at 100 µM in experiment [18] was 31%; in experiment [19] it was 60%; in [20], 72%; in experiment [9], 93%; in [21] it was 97%; in experiment [22], 100%. The % activity at 100 µM in experiment [23] was 140%; in experiment [13], 110%; in experiment [24], 122%; in experiment [25] it was 67%.

Turning to MMI-0400 (peptide), the % activity at 100 µM was 95% in experiment [1]; 26% in experiment [5]; 52% in [6]; 17% in experiment [18]; 96% in [8]; 47% in experiment [19]. Moreover, the % activity at 100 µM was determined as 91% in experiment [20]; 98% in [21]; 94% in [22]; 97% in [10]; 31% in experiment [11]; 63% in [12]. Further, the % activity at 100 µM was 97% in experiment [14], 177% in experiment [24], 14% in experiment [25] and 124% in experiment [15].

(Values after patent publication US20150064134A1.)
